Test results as given in patent US20210130436A1 (published 2021).
Substitutions are numbered along the chain they refer to. Names and notes keep the numbering of the source. Values belong to the binder of their own block, whether it stands above or below them.

Key:
[1] = biological target: T1, CD28, endogenously expressed on Jurkat/IL2 reporter cells (human, UniProt P10747 19-220); experiment: flow cytometry on Jurkat/IL2 reporter cells (endogenous CD28); PE anti-human Fc
T1 construct: Endogenous CD28 of Jurkat/IL2 reporter cells

[2] = biological target: T2, human PD-L1 (human, UniProt Q9NZQ7 19-290); experiment: flow cytometry on CHO cells stably expressing PD-L1
T2 construct: also called huPD-L1; CD274
T2 sequence (Q9NZQ7 19-290): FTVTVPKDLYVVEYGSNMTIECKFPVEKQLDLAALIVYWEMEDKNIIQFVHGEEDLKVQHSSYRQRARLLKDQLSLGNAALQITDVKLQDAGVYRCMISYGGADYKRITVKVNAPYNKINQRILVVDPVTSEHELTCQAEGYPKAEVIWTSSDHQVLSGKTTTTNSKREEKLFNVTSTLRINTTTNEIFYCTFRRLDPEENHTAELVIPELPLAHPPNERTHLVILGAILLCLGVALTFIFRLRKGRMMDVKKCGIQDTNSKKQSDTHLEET

[3] = biological target: T3, human CD28 (human, UniProt P10747 19-220); experiment: flow cytometry on Jurkat cells (CD28)
T3 construct: Endogenous CD28 on Jurkat/IL2 reporter cells

[4] = biological target: T4, human CTLA-4 (human, UniProt P16410 36-223); experiment: flow cytometry on CHO cells stably expressing CTLA4
T4 construct: also called huCTLA4

[5] = biological target: T2, human PD-L1; experiment: flow cytometry; PD-L1 MFI over CD28 MFI
[6] = biological target: T4, human CTLA-4; experiment: flow cytometry on CHO cells stably expressing CTLA4; vs CD80 WT IgV-Fc
[7] = biological target: T2, human PD-L1; experiment: cell-based or functional assay
[8] = biological target: T2, human PD-L1; experiment: flow cytometry on CHO cells stably expressing PD-L1; vs CD80 WT IgV-Fc
[9] = biological target: T3, human CD28; experiment: flow cytometry on Jurkat cells (CD28); vs CD80 WT IgV-Fc
[10] = biological target: T5, human PD-L1, expressed on CHO cells (human, UniProt Q9NZQ7 19-290); experiment: flow cytometry on CHO cells stably expressing human PD-L1; MFI relative to WT CD80 ECD-Fc (R&D)
T5 construct: Full-length surface expression construct transduced by lentivirus into CHO cells; also called huPD-L1; CD274

[11] = biological target: T5, human PD-L1, expressed on CHO cells; experiment: flow cytometry on CHO cells stably expressing human PD-L1; PE anti-human Fc
[12] = biological target: T5, human PD-L1, expressed on CHO cells; experiment: flow cytometry; ratio of MFI on PD-L1 CHO cells to MFI on Jurkat (CD28) cells
[13] = biological target: T6, human CTLA-4 (CTLA4), expressed on CHO cells (human, UniProt P16410 36-223); experiment: flow cytometry on CHO cells stably expressing human CTLA-4; PE anti-human Fc
T6 construct: Full-length surface expression construct transduced by lentivirus into CHO cells; also called huCTLA4

[14] = biological target: T6, human CTLA-4 (CTLA4), expressed on CHO …; experiment: flow cytometry on CHO cells stably expressing human CTLA-4; MFI relative to WT CD80 ECD-Fc (R&D)
[15] = biological target: human CD28 (human, UniProt P10747 19-220); experiment: flow cytometry, Jurkat/IL2 reporter cells (endogenous CD28)
[16] = biological target: T7, human CTLA4 (human, UniProt P16410 36-223); experiment: flow cytometry, CHO cells expressing huCTLA4
T7 construct: also called huCTLA4

[17] = biological target: T8, human PD-L1 (human, UniProt Q9NZQ7 19-290); experiment: flow cytometry, CHO cells expressing huPD-L1
T8 construct: also called huPD-L1; CD274
T8 sequence (Q9NZQ7 19-290): as above

T5 sequence (Q9NZQ7 19-290): as above
T6 sequence (P16410 36-223): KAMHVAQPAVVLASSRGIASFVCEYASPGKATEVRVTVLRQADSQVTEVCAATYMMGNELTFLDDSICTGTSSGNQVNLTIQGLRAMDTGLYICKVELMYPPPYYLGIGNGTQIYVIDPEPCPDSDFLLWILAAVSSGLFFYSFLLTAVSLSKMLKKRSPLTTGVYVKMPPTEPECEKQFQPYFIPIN
T4 sequence (P16410 36-223): as above
T7 sequence (P16410 36-223): as above

- MFI at 33.3 nM [2]: 47 MFI
- MFI at 33.3 nM [3]: 56 MFI
- MFI at 33.3 nM [4]: 1200 MFI
- Ratio of PDL1:CD28 [5]: 1 ratio
- Fold change to WT CD80 [6]: 1 fold
- Fold Increase over WT CD80-IgV-Fc, Jurkat/IL2 + CHO/OKT3/PD-L1 Reporter Assay [7]: 1 fold
- RLU, Jurkat/IL2 + CHO/OKT3/PD-L1 Reporter Assay, CD80 Conc 5.0 nM [7]: 390 RLU
- Fold change to WT CD80 [8]: 1 fold
- Fold change to WT CD80 [9]: 1 fold
B2: wild-type CD80 IgV-Fc (inert) with GSG4S linker, Example 16 (Fc fusion)
chain: VIHVTKEVKEVATLSCGHNVSVEELAQTRIYWQKEKKMVLTMMSGDMNIWPEYKNRTIFDITNNLSIVILALRPSDEGTYECVVLKYEKDAFKREHLAEVTLSVKADGSGGGGSEPKSSDKTHTCPPCPAPEAEGAPSVFLFPPKPKDTLMISRTPEVTCVVVDVSHEDPEVKFNWYVDGVEVHNAKTKPREEQYNSTYRVVSVLTVLHQDWLNGKEYKCKVSNKALPAPIEKTISKAKGQPREPQVYTLPPSREEMTKNQVSLTCLVKGFYPSDIAVEWESNGQPENNYKTTPPVLDSDGSFFLYSKLTVDKSRWQQGNVFSCSVMHEALHNHYTQKSLSLSPG
notes: also called CD80 WT IgV-Fc

- MFI at 33.3 nM [15]: 2000 MFI
- MFI at 33.3 nM [16]: 19900 MFI
B4: variant CD80 IgV-Fc H18Y/A26E/A71G/D90G (Fc fusion, not shown: small tags and cut ends; a dimerising Fc or GST)
chain: VIHVTKEVKEVATLSCGYNVSVEELEQTRIYWQKEKKMVLTMMSGDMNIWPEYKNRTIFDITNNLSIVILGLRPSDEGTYECVVLKYEKGAFKREHLAEVTLSVKAD

- MFI at 33.3 nM [17]: 31100 MFI
- MFI at 33.3 nM [15]: 3610 MFI
- MFI at 33.3 nM [16]: 17400 MFI
B5: variant CD80 IgV-Fc M47L/V68M/A71G/D90G (Fc fusion, not shown: small tags and cut ends; a dimerising Fc or GST)
chain: B4 chain with Y18H, E26A, M47L, V68M

- MFI at 33.3 nM [17]: 10000 MFI
B6: variant CD80 IgV-Fc H18Y/A26E/E35D/D90G (Fc fusion, not shown: small tags and cut ends; a dimerising Fc or GST)
chain: B4 chain with E35D, G71A

The remaining lines, values behind:

B1: WT CD80 ECD-Fc (R&D) (Fc fusion)
chain: VIHVTKEVKEVATLSCGHNVSVEELAQTRIYWQKEKKMVLTMMSGDMNIWPEYKNRTIFDITNNLSIVILALRPSDEGTYECVVLKYEKDAFKREHLAEVTLSVKADFPTPSISDFEIPTSNIRRIICSTSGGFPEPHLSWLENGEELNAINTTVSQDPETELYAVSSKLDFNMTTNHSFMCLIKYGHLRVNQTFNWNTTKQEHFPDN
notes: Bought from R&D Systems; also called unmodified CD80-ECD-Fc fusion molecule (R&D Systems, USA); wild-type CD80-ECD-Fc; not shown: Fc and any linker of the bought R&D Systems protein are not described
- MFI at 33.3 nM [1]: 18000 MFI

B3: variant CD80 IgV-Fc E35D/M42V/M47V/E52D/L85Q (Fc fusion, not shown: small tags and cut ends; a dimerising Fc or GST)
chain: B4 chain with Y18H, E26A, E35D, M42V, M47V, E52D, G71A, L85Q, G90D
notes: Fc fusion of the variant IgV
- Fold change to WT CD80 [10]: 1 fold
- MFI at 33.3 nM [11]: 11900 MFI
- Ratio of PDL1:CD28 [12]: 9 ratio
- MFI at 33.3 nM [13]: 226000 MFI
- Fold change to WT CD80 [14]: 1.44 fold
